How the values were obtained:
[1] = tested on: mAb-PCL(15AA)-IL2-PCL(15AA)-IL2Rα
[2] = tested on: mAb-PCL(15AA)-IL2-PCL(20AA)-IL2Rα

recombinant human uPA (R&D Cat #1310-SE)
release of free IL2 after uPA digestion (reducing SDS-PAGE, western blot probed with biotinylated anti-hIL2) [1]: Protease digestion of the IL2 proproteins with uPA resulted in the release of free IL2 from both IL2 proproteins
release of free IL2 after uPA digestion (reducing SDS-PAGE, western blot probed with biotinylated anti-hIL2) [2]: the IL2 proprotein construct comprising a 20AA linker between IL2 and IL2Rα domains displayed a more complete linker digestion and IL2 release relative to the construct comprising a 15AA linker between IL2 and IL2Rα
